Reference: patent publication US20190351015

B1: Siah1 (protein)
chain: MSRQTATALPTGTSKCPPSQRVPALTGTTASNNDLASLFECPVCFDYVLPPILQCQSGHLVCSNCRPKLTCCPTCRGPLGSIRNLAMEKVANSVLFPCKYASSGCEITLPHTEKADHEELCEFRPYSCPCPGASCKWQGSLDAVMPHLMHQHKSITTLQGEDIVFLATDINLPGAVDWVMMQSCFGFHFMLVLEKQEKYDGHQQFFAIVQLIGTRKQAENFAYRLELNGHRRRLTWEATPRSIHEGIATAIMNSDCLVFDTSIAQLFAENGNLGINVTISMC
Nkx3.2 (162-312)
  Degradation by Siah1: ++
Nkx3.2 (123-333)
  Degradation by Siah1: -
Nkx3.2 (99-320)
  Degradation by Siah1: +
Nkx3.2 (1-320)
  Degradation by Siah1: +
Nkx3.2 (150-320)
  Degradation by Siah1: -
Nkx3.2 (123-320)
  Degradation by Siah1: -
Nkx3.2 (165-310)
  Degradation by Siah1: ++
Nkx3.2 (99-330)
  Degradation by Siah1: +++
Nkx3.2 (1-307)
  Degradation by Siah1: -
Nkx3.2 (42-333)
  Degradation by Siah1: +++
Nkx3.2 (112-320)
  Degradation by Siah1: -
Nkx3.2 (110-324)
  Degradation by Siah1: +++
Nkx3.2 (130-320)
  Degradation by Siah1: -
Nkx3.2 (112-333)
  Degradation by Siah1: ++
Nkx3.2 (105-327)
  Degradation by Siah1: ++
Nkx3.2 (99-327)
  Degradation by Siah1: +++
Nkx3.2 (99-333)
  Degradation by Siah1: ++
Nkx3.2 (153-318)
  Degradation by Siah1: -
Nkx3.2 (159-314)
  Degradation by Siah1: ++
Nkx3.2 (156-316)
  Degradation by Siah1: ++
Nkx3.2 (1-333)
  Degradation by Siah1: +++
